The text below walks through data of patent publication US20100004432, “APTAMER AGAINST MIDKINE AND USE THEREOF” (RIBOMIC INC., published 2010).

Data set [1] has as its target T1, midkine (full-length) (Homo sapiens, UniProt P21741 P21741:23-143).
T1 sequence: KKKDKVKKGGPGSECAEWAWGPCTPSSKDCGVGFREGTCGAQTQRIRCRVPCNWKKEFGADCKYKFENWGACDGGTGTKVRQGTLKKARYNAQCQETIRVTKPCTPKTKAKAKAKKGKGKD
The data set is described as follows: cell_activity. The note with it: 500 nM; control.

Data set [2] concerns the target T1, midkine (full-length). The data set is described as follows: cell_activity; UMR106 migration inhibition, 500 nM RNA. The note with it: tags: expressed in yeast.
Data set [3] addresses T1, midkine (full-length). The data set is described as above. The note with it: tags: expressed in yeast. As for the experimental part: 30 μL of 1.5 μM midkine was applied to the outer surface of the membrane of Chemotaxicell (membrane pore diameter 8 μm, manufactured by Kurabo) to immobilize the midkine to the outer surface of the membrane. The midkine-immobilized Chemotaxicell was placed on a 24-well culture plate containing 500 μL of a medium (supplemented with 0.3% bovine serum albumin, Dulbecco's Modified Eagle's medium) supplemented with each RNA aptamer added thereto at 100 nM. 200 μL of UMR106 cells were placed in the inner layer of the Chemotaxicell chamber at a density of 1×10⁶ cells/mL, and cultured at 37° C. for 4 hours. The cells remaining in the inner layer of the Chemotaxicell chamber were removed, and the cells that had infiltrated and adhered to the midkine-applied surface were fixed with methanol. The Chemotaxicell chamber was immersed in a 1% aqueous solution of Crystal Violet for 30 minutes to stain the cells. After the Chemotaxicell chamber was washed with distilled water and dried, the pigment was extracted with a mixed solution of 200 μL of 1% SDS and 1% triton X100. 150 μL of the extract was transferred to a 96-well microplate, and its absorbance at 590 nm was determined.
The aptamer shown by SEQ ID NO:5 is 77 nucleotides long, having the 2′-position of the ribose of the pyrimidine nucleotide fluoro-substituted. To enable the chemical synthesis, to reduce the toxicity, and to improve the stability in the blood, miniaturization and stabilization of this aptamer were performed. The operations of miniaturization and stabilization were performed on the basis of the secondary structure estimated by the MFOLD program, and the activity was evaluated by a cell migration inhibition experiment. The RNA concentration in the cell migration inhibition experiment was 100 nM or 500 nM. Since some errors occur in experimental results depending on cell condition, a previously assayed sample was included as a positive control in each measurement.
This is another data set of the same source.

For the molecule tRNA, the activity (% of SEQ 40 inhibition) with midkine (full-length) [1] was found to be 28.

B1: SEQ ID NO:45-1 (ssRNA)
RNA: GGGAGAGGAGAAGAGGAAGUGCACAGGGGUUGGUGUCGGGUGCAC
modifications: 5' PEG2000-C12; 3' idT; 2'-F pyrimidines; 2'-OMe all A in 5' single-stranded part
As for B1, the activity with midkine (full-length) [2] was 100 % of SEQ ID NO:40.

B2: SEQ ID NO:45-3 (ssRNA)
RNA: B1 RNA
modifications: 2'-F pyrimidines; 2'-OMe all A in 5' single-stranded part and A, G in internal loop: a(M)g(M)ggg and c(F)g(M)g(M)g
Turning to B2, the activity with midkine (full-length) [2] is 56 % of SEQ ID NO:40.

B3: SEQ ID NO:45-2 (ssRNA)
RNA: B1 RNA
modifications: 2'-F pyrimidines; 2'-OMe all A in 5' single-stranded part and G in loop: agggg(M)u(F)u(F)g(M)g(M)u(F)g(M)u(F)c(F)
With B3, the activity in the data set with midkine (full-length) [2] was 100 % of SEQ ID NO:40.

B4: SEQ ID NO:45-4 (ssRNA)
RNA: B1 RNA
modifications: 2'-F pyrimidines; 2'-OMe all A in 5' single-stranded part and A, G in end stem: gu(F)g(M)c(F)a(M)c(F) and u(F)g(M)c(F)a(M)c(F)
For the molecule B4, the activity in the data set with midkine (full-length) [2] is 100 % of SEQ ID NO:40.
Regarding GGGAAGGAGGAAGUGCACAGGGGUUGGUGUCGGGUGCAC (ssRNA, as 61-4 plus 2'-OMe: c(F)g(M)g(M)gu(F) near 3' end) [SEQ ID NO:61-7], in the data set with midkine (full-length) [3], the activity is 46 % of SEQ ID NO:40.
Take GGGAAGGAGGAAGUGCACAGGGGUUGGUGUCGGGUGCAC (ssRNA, 5' PEG2000; as 61-4 but a(M)gg(M)g(M)g(M) and ggg(M)u(F)) [SEQ ID NO:61-9]: the activity with midkine (full-length) [3] was 39 % of SEQ ID NO:40.
With GGGAAGGAGGAAGUGCACAGGGGUUGGUGUCGGGUGCAC (ssRNA, as 61-4 but a(M)g(M)gg(M)g(M) in place of aggg(M)g(M)) [SEQ ID NO:61-8], in the data set with midkine (full-length) [3], the activity was 54 % of SEQ ID NO:40.
